Experimental data as given in patent publication US8580556B2, “Sulfonylurea-responsive repressor proteins” (E. I. du Pont de Nemours and Company, priority 2008, dated 2013).
Where a chain is given by its changes, count along the chain named.

B1: L6-1B03 (protein)
chain: MGSRLDKSKVINSALELLNEVGIEGLTTRKLAQKLGVEQPTLYWHVKNKRALLDALAIEMMDRHATHICPLEGESWQDFLRNNAKSMRCALLSHRDGAKVCLGTRWTEQQYEAAENMLAFLCQQGFSLENALYAVSAVRVFTLGCVLFDQESQVAKEERETPTTASMPPLLRQAWELKDHQGAEPAFLFGLELIICGLEKQLKCESGS
modifications: Sulfonylurea responsive repressor L6-1B03
B2: L6-6F07 (protein)
chain: B1 chain with I68L, N83T, A113S, V135M
modifications: Sulfonylurea responsive repressor L6-6F07
B3: L6-5G06 (protein)
chain: B1 chain with A65Q, I68Y, A113T, M117Q, S152L, A174G
modifications: Sulfonylurea responsive repressor L6-5G06
B4: L6-3H02: SuR polypeptide, SEQ ID NO: 94 (protein)
chain: B1 chain with I68Y, N83T, Q110H, A113S, L171V, D179V
modifications: Sulfonylurea responsive repressor L6-3H02
B5: L6-5H12 (protein)
chain: B1 chain with I68Y, Q109K, A113T, M117Q, V135M, S152L, L171V
modifications: Sulfonylurea responsive repressor L6-5H12
B6: L6-5F05 (protein)
chain: B1 chain with M117Q, S152L
modifications: Sulfonylurea responsive repressor L6-5F05
B7: L6-4D10 (protein)
chain: B1 chain with A65Q, I68Y, Q109K, A113S
modifications: Sulfonylurea responsive repressor L6-4D10
B8: L6-5H06 (protein)
chain: B1 chain with A65Q, Q109K, A113T, S152L, L171V
modifications: Sulfonylurea responsive repressor L6-5H06
B9: L6-2C09 (protein)
chain: B1 chain with A65Q, I68Y, N83T, Q110L, A113T, M117Q, V135M, S152L
modifications: Sulfonylurea responsive repressor L6-2C09
B10: L6-2D07 (protein)
chain: B1 chain with A65Q, I68F, N83T, A113T, V135M, L171V
modifications: Sulfonylurea responsive repressor L6-2D07
B11: L1-34: library L1 reverse repressor hit (SEQ ID NO: 1206-1213) (protein)
chain: MGSRLDKSKVINSALELLNEVGIEGLTTRKLAQKLGVEQPTLYWHVKNKRALLDALAIEMADRHNTHFCPLEGESWQDFLRNAARSMRCALLSHRDGAKVYLGTARTEKQYETTENVLAFLCQQGFSLENALYAVRAVPRFTLGCVLLDQERQVAKEERETPTTDSMPPLLRQARELTDHQGAEPAFLFGLELIICGLEKQLKCESGS
modifications: rSuR L1-34
B12: L1-33: library L1 reverse repressor hit (SEQ ID NO: 1206-1213) (protein)
chain: MGSRLDKSKVINSALELLNEVGIEGLTTRKLAQKLGVEQPTLYWHVKNKRALLDALAIEMLDRHATHFCPLEGESWQDFLRNNAKSMRCALLSHRDGAKVQLGTAATEKQYETLENKLAFLCQQGFSLENALYAHSAVTQFTLGCVLRDQEGQVAKEERETPTTDSMPPLLRQARELRDHQGAEPAFLFGLELIICGLEKQLKCESGS
modifications: rSuR L1-33
B13: L1-21: library L1 reverse repressor hit (SEQ ID NO: 1206-1213) (protein)
chain: MGSRLDKSKVINSALELLNEVGIEGLTTRKLAQKLGVEQPTLYWHVKNKRALLDALAIEMLDRHATHFCPLEGESWQDFLRNNAKSFRCALLSHRDGAKVCLGTAGTEKQYETLENCLAFLCQQGFSLENALYARSAVVCFTLGCVLFDQEMQVAKEERETPTTDSMPPLLRQAAELLDHQGAEPAFLFGLELIICGLEKQLKCESGS
modifications: rSuR L1-21
B14: L1-18: library L1 reverse repressor hit (SEQ ID NO: 1206-1213) (protein)
chain: MGSRLDKSKVINSALELLNEVGIEGLTTRKLAQKLGVEQPTLYWHVKNKRALLDALAIEMLDRHLTHFCPLEGESWQDFLRNNAKSMRCALLSHRDGAKVWLGTGFTEKQYETKENRLAFLCQQGFSLENALYAIRAVSRFTLGCVLQDQEPQVAKEERETPTTDSMPPLLRQAVELFDHQGAEPAFLFGLELIICGLEKQLKCESES
modifications: rSuR L1-18
B15: L1-25: library L1 reverse repressor hit (SEQ ID NO: 1206-1213) (protein)
chain: MGSRLDKSKVINSALELLNEVGIEGLTTRKLAQKLGVEQPTLYWHVKNKRALLDALAIEMLDRHATHFCPLEGESWQDFLRNTAKSMRCALLSHRDGAKVLLGTATTEKQYETLENLLAFLYQQGFSLENALYAWQAVWRFTLGCVLIDQETQVAKEERETPTTDSMPPLLRQAVELKDHQGAEPAFLFGLELIICGLEKQLKCETGS
modifications: rSuR L1-25

The molecules below were run on tetA promoter (PtetA)-lacZ reporter in E. coli KM3. Details: not given.
Format: cell-based
With B1 the “0.2 ppm 48 hr/Control 84 hr” value was 4.6. With B2 the “0.2 ppm 48 hr/Control 84 hr” value was 2.3. With B3 the “0.2 ppm 48 hr/Control 84 hr” value was 4.9. In the case of B4, the “0.2 ppm 48 hr/Control 84 hr” value is reported as 2.8. In the case of B5, the “0.2 ppm 48 hr/Control 84 hr” value is reported as 4.2. In the case of B6, the “0.2 ppm 48 hr/Control 84 hr” value is reported as 4.1. B7 was tested, and the “0.2 ppm 48 hr/Control 84 hr” value was 3.7. For B8, the “0.2 ppm 48 hr/Control 84 hr” value was 2.7. B9 was tested, and the “0.2 ppm 48 hr/Control 84 hr” value was 2.6. For B10, the “0.2 ppm 48 hr/Control 84 hr” value was 3.4.

Same assay, conditions: M9 assay plates, 0.2 ppm chlorsulfuron as inducer, 48 hr at 30° C., colony color intensity by ImageJ
With B1 the “0.2 ppm 48 hr (colony color intensity, induction by chlorsulfuron)” value was 30.0. In the case of B6, the “0.2 ppm 48 hr (colony color intensity, induction by chlorsulfuron)” value is reported as 22.0. With B10 the “0.2 ppm 48 hr (colony color intensity, induction by chlorsulfuron)” value was 20.0.

Same assay, conditions: M9 assay plates, no inducer, 84 hr at 30° C., colony color intensity by ImageJ
With B1 the “Control 84 hr (colony color intensity, background activity without inducer)” value was 6.6. In the case of B2, the “Control 84 hr (colony color intensity, background activity without inducer)” value is reported as 5.1. For B3, the “Control 84 hr (colony color intensity, background activity without inducer)” value was 7.0. For B4, the “Control 84 hr (colony color intensity, background activity without inducer)” value was 5.6. For B5, the “Control 84 hr (colony color intensity, background activity without inducer)” value was 5.7. With B6 the “Control 84 hr (colony color intensity, background activity without inducer)” value was 5.4. B7 was tested, and the “Control 84 hr (colony color intensity, background activity without inducer)” value was 5.0. B8 was tested, and the “Control 84 hr (colony color intensity, background activity without inducer)” value was 5.1. B9 was tested, and the “Control 84 hr (colony color intensity, background activity without inducer)” value was 5.2. B10 was tested, and the “Control 84 hr (colony color intensity, background activity without inducer)” value was 5.8.

Same assay, conditions: Table 6, reverse repressor hits; anhydrotetracycline
B11 was tested, and the “relative β-galactosidase activity, inducer atc” value was 3.68. B12 was tested, and the “relative β-galactosidase activity, inducer atc” value was 8.25. With B13 the “relative β-galactosidase activity, inducer atc” value was 2.81. With B14 the “relative β-galactosidase activity, inducer atc” value was 2.35. In the case of B15, the “relative β-galactosidase activity, inducer atc” value is reported as 1.22.

Same assay, conditions: Table 6, reverse repressor hits; chlorimuron, same plate assay format as Table 4
With B11 the “relative β-galactosidase activity, inducer Ci” value was 0.43. With B12 the “relative β-galactosidase activity, inducer Ci” value was 0.76. B13 was tested, and the “relative β-galactosidase activity, inducer Ci” value was 0.07. B14 was tested, and the “relative β-galactosidase activity, inducer Ci” value was 0.36. With B15 the “relative β-galactosidase activity, inducer Ci” value was 0.11.

Same assay, conditions: Table 6, reverse repressor hits; chlorsulfuron, same plate assay format as Table 4
B11 was tested, and the “relative β-galactosidase activity, inducer Cs” value was 0.85. With B12 the “relative β-galactosidase activity, inducer Cs” value was 3.74. B13 was tested, and the “relative β-galactosidase activity, inducer Cs” value was 0.89. B14 was tested, and the “relative β-galactosidase activity, inducer Cs” value was 1.22. With B15 the “relative β-galactosidase activity, inducer Cs” value was 0.28.

Same assay, conditions: Table 6, reverse repressor hits; ethametsulfuron, same plate assay format as Table 4
In the case of B11, the “relative β-galactosidase activity, inducer Es” value is reported as 1.33. B12 was tested, and the “relative β-galactosidase activity, inducer Es” value was 2.11. For B13, the “relative β-galactosidase activity, inducer Es” value was 0.61. In the case of B14, the “relative β-galactosidase activity, inducer Es” value is reported as 0.37. For B15, the “relative β-galactosidase activity, inducer Es” value was 0.13.

Same assay, conditions: Table 6, reverse repressor hits; metsulfuron, same plate assay format as Table 4
With B11 the “relative β-galactosidase activity, inducer Ms” value was 1.47. For B12, the “relative β-galactosidase activity, inducer Ms” value was 4.29. In the case of B13, the “relative β-galactosidase activity, inducer Ms” value is reported as 0.89. For B14, the “relative β-galactosidase activity, inducer Ms” value was 0.79. For B15, the “relative β-galactosidase activity, inducer Ms” value was 0.32.

Same assay, conditions: Table 6, reverse repressor hits; nicosulfuron, same plate assay format as Table 4
For B11, the “relative β-galactosidase activity, inducer Ns” value was 2.91. With B12 the “relative β-galactosidase activity, inducer Ns” value was 5.34. With B13 the “relative β-galactosidase activity, inducer Ns” value was 2.74. B14 was tested, and the “relative β-galactosidase activity, inducer Ns” value was 1.44. In the case of B15, the “relative β-galactosidase activity, inducer Ns” value is reported as 1.21.

Same assay, conditions: Table 6, reverse repressor hits; no inducer
With B11 the “relative β-galactosidase activity, inducer Blank” value was 2.37. In the case of B12, the “relative β-galactosidase activity, inducer Blank” value is reported as 7.59. With B13 the “relative β-galactosidase activity, inducer Blank” value was 2.88. B14 was tested, and the “relative β-galactosidase activity, inducer Blank” value was 1.34. With B15 the “relative β-galactosidase activity, inducer Blank” value was 1.17.

Same assay, conditions: Table 6, reverse repressor hits; rimsulfuron, same plate assay format as Table 4
In the case of B11, the “relative β-galactosidase activity, inducer Rs” value is reported as 2.30. With B12 the “relative β-galactosidase activity, inducer Rs” value was 10.32. In the case of B13, the “relative β-galactosidase activity, inducer Rs” value is reported as 2.31. In the case of B14, the “relative β-galactosidase activity, inducer Rs” value is reported as 2.55. For B15, the “relative β-galactosidase activity, inducer Rs” value was 1.08.

Same assay, conditions: Table 6, reverse repressor hits; sulfometuron, same plate assay format as Table 4
For B11, the “relative β-galactosidase activity, inducer Sm” value was 2.00. B12 was tested, and the “relative β-galactosidase activity, inducer Sm” value was 5.02. B13 was tested, and the “relative β-galactosidase activity, inducer Sm” value was 2.39. With B14 the “relative β-galactosidase activity, inducer Sm” value was 0.94. For B15, the “relative β-galactosidase activity, inducer Sm” value was 0.63.

Same assay, conditions: Table 6, reverse repressor hits; thifensulfuron, same plate assay format as Table 4
With B11 the “relative β-galactosidase activity, inducer Ts” value was 2.97. With B12 the “relative β-galactosidase activity, inducer Ts” value was 5.51. In the case of B13, the “relative β-galactosidase activity, inducer Ts” value is reported as 0.79. With B14 the “relative β-galactosidase activity, inducer Ts” value was 1.13. With B15 the “relative β-galactosidase activity, inducer Ts” value was 0.64.

Same assay, conditions: Table 6, reverse repressor hits; tribenuron, same plate assay format as Table 4
For B11, the “relative β-galactosidase activity, inducer Tb” value was 2.26. With B12 the “relative β-galactosidase activity, inducer Tb” value was 4.71. For B13, the “relative β-galactosidase activity, inducer Tb” value was 2.13. With B14 the “relative β-galactosidase activity, inducer Tb” value was 1.65. In the case of B15, the “relative β-galactosidase activity, inducer Tb” value is reported as 1.72.
